This passage reports protein production results from a protein production outcome set (Wang et al. 2014).

This data set can be described thus: label from the status in PepcDB records.
In the case of “MRTLEPPNRMRIGLMGIVVALLVVAVGQSFTSVPMLFAKPSYYGQFTDSGGLHKGDRVRIAGLGVGTVEGLKIDGDHIVVKFSIGTNTIGTESRLAIRTDTILGRKVLEIEPRGAQALPPGGVLPVGQSTTPYQIYDAFFDVTKAASGWDIETVKRSLNVLSETVDQTYPHLSAALDGVAKFSDTIGKRDEQITHLLAQANQVASILGDRSDQVDRLLVNAKTLIAAFNERGRAVDALLGNISAFSAQVQNLINDNPNLNHVLEQLRILTDLLVDRKEDLAETLTILGRFSASFGETFASGPYFKVLLANLVPGQILQPFVDAAFKKRGISPEDFWRSAGLPAYRWPDPNGTRFPNGAPPPPPPVLEGTPEHPGPAVPPGSPCSYTPPADGLPRPWDPLPCANLTQGPFGGPDFPAPLDVATSPPNPDGPPPAPGLPIAGRPGEVPPNVPGTPVPIPQEAPPGARTLPLGPAPGPAPPPAAPGPPAPPGPGPQLPAPFINPGGTGGSGVTGGSEN”, the protein production entry was “failed”.

Take “MRTLTTLLGNSQKLDGGAMFGNAPRALWSRWMQPDAENRIDLGCRALLVRDGERNVLVEAGIGAFFPPALRQRYGVQEERHVLLDSLAAVGLDDADIDVVLLTHLHFDHAGGLLAAWEEGQPARLLFPNAHFVSGRRHWQRARQPHPRDRASFVPELLDLLQASGRLELLDDGERSAHLGEGWRFHFSEGHTPGQMLPEIAMPDGPVVFSGDLIPGAPWVHLPLTMGYDRFPEGLIEEKERLLDSLIARNGRLVFTHDPCVAMGRVRRDEQERYSLYDTLERVENLEA”: the protein production result is listed as “failed”. “MRTVSHPTPLRRAPVQRRSAERLTRILDACADLLDEVGYDALSTRAVALRADVPIGSVYRFFGNKRQMADALAQRNLERYAERVTERLTEAGDGGWRGALDTVLDEYLAMKRTAPGFSLIDFGNQIPVGDRHAVPNHRVAERLTELLSGYLGRRPDDDLRRVFLVAVETADTLVQLAFRVAPDGDEKIIEEARELLRAYLGRVLD”: the protein production result was “not failed”. “MRTYTAQPDTTRPDTLTVTTYNIGYLSGMRNNEPVVRPDSLFHANMDQAAGYLRAAAPDIVALQEIDFGGARAAHVHQLDTLAARLGYPGAAQAVNWDERYLPFPYGRPAVHFGRTLSGQAVLSRFPVRRHVRRTLPRPPQPFFRDAFYLDRLAQVGVVDVDGRPLAVINVHLEAFDVGTRETQARVVNDLYRRLADRGIPTLLLGDFNSSLSSGEEGGQAGAEDATMQHILAGTDLRSAVNTASADTASATYPADAPARTIDHIFYPPQFFEAVDTQRWCGRPAPPSDHCAVTAALRLPSRAKWPSHEALPPLEDSPTE”: the protein production entry was “failed”. As for “MRVAVAGFGGVGRRLARLLLERGGSHGLSLAAAIDSRGHAVFDSRGCVEEALSAPRGGLAGVSCGAPGSGPGVLRGLGYDALVLTTASSPGTGEPGLGYARAALEDGKVVVAADKPPVALLLLEHGGPPPGLFYKATVMAGTPLIDLLRVGLAGRRVLRVVGVLNGTSNYILNLLMEGV”, the protein production result is listed as “failed”. In the case of “MRVEALGKVAPLPQAQTPVSLNEASLEELMALPGIGPVLARRIVEGRPYARVEDLLKVKGIGPATLERLRPYLRP” it was “not failed”.
